In publication PMC5682286:

Experiments:
[1] = molecular target: tES-GFPuv, GFPuv fused to the C-terminus of a histidine-tagged tES subunit (Archaeoglobus fulgidus | not stated) (UniProt O29424)
[2] = molecular target: tES-HRPc, truncated horseradish peroxidase fused to the C-terminus of a histidine-tagged tES subunit (Archaeoglobus fulgidus | horseradish) (UniProt O29424); experiment: pull-down + SEC; tES(+) and His-tagged tES-POI coexpressed in E. coli BL21(DE3); Ni-NTA by the His tag of the fusion subunit, then SEC (25 mM Tris-HCl, pH 8); ratio by gel densitometry of purified fractions
[3] = molecular target: tES-rLuc, Renilla luciferase fused to the C-terminus of a histidine-tagged tES subunit (Archaeoglobus fulgidus | Renilla) (UniProt O29424); experiment: as above
[4] = molecular target: tES-GFPuv, GFPuv fused to the C-terminus of a histidine-tagged tES subunit (Archaeoglobus fulgidus | not stated) (UniProt O29424); experiment: as above

Substance | GFPuv fluorescence after in vitro folding; molar ratios of tES(+)F116H subunits to tES-GFPuv from 0:1 to 90:1, highest at 90:1 [1] | stoichiometry N (tES subunits per tES-POI fusion subunit) [2] | stoichiometry N (tES subunits per tES-POI fusion subunit) [3] | stoichiometry N (tES subunits per tES-POI fusion subunit) [4]
tES(+)F116H, pH-titratable exoshell subunit (from UniProt O29424 1-164) | 100 fold | – | – | –
tES(+) thermostable exoshell subunit, net positive cavity (from UniProt O29424 1-164) | – | 19 | 20 | 32
